In patent US20130101549A1 (Biogen, published 2013):
Several values for one entry are separate records, joined by “and”; a condition that tells them apart may be missing. Equal entries are not always repeated.

What was measured:
human HVEM-Ig = target: T1, human HVEM-Ig (human, UniProt Q92956 39-202); test: ELISA on coated HVEM-Ig
T1 construct: Expressed and purified in house; also called HVEM-Fc; Herpes virus entry mediator-Ig
T1 sequence (looked up): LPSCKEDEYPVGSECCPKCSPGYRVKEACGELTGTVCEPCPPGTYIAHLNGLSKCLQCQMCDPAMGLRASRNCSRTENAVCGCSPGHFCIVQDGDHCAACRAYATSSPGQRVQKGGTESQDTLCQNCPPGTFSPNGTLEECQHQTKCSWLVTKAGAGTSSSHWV
Protocol: (§1) Human and murine ErbB2-Fc were obtained from R&D Systems. Wells of 96-well plates were coated with 2 ug/ml or 0.2 ug/ml of human or murine HER2-Fc by incubation overnight at 4-8° C. with either of these six proteins (80 ul/well of a 0.2 or 2 ug/ml solution in PBS). Wells were emptied, filled completely with a solution of PBS with 1% BSA (blocking buffer) and incubated at room temperature for 1 hour. Wells were emptied, washed twice PBS containing 0.05% Tween 20 (PBST) and filled with the samples (80 ul/well of 3× dilution series of the standard and supernatants in blocking buffer) prepared in another 96-well plate. After a 2-hour incubation at room temperature, the wells were emptied, washed three times with PBST and filled with a solution of HRP-conjugated goat pAbs anti-human kappa chain (80 ul/well of a 2000-fold dilution in blocking buffer). After 1-hour incubation, the wells were emptied and filled with a solution of HRP substrate prepared freshly. The color was left to develop for 3 minutes and was stopped by addition of an equal volume of 1N H₂SO₄. Absorbance was measured at 450 nm using a Plate Reader (SpectraMax, Molecular Devices). The data was processed and graphs were created using SoftMax Pro software.
(§2) Human and murine HVEM-Ig were expressed and purified in house.

[1] = target: T2, human HER2/ErbB2 on cells (human, UniProt P04626 23-1255); test: FACS on HER2-expressing cells
T2 construct: whole, on cells; also called hHER2/ErbB2; wild type HER2/ErbB

human LTβR-Ig [2] = target: T3, human LTβR-Ig (human, UniProt P36941 31-227); test: FACS (LTbR column of Table 2; format not told there)
T3 construct: Expressed and purified in house; also called hLTbR-Ig; human LTBR-Ig

murine HVEM-Ig [3] = target: T4, murine HVEM-Ig (mouse, UniProt Q80WM9 39-210); test: ELISA, muHVEM-Ig coated at 0.2 ug/ml, HRP goat anti-human kappa; the number is C of the printed 4-P fit (A 0.045, B 0.716, D 1.298, R^2 0.996); Fab-Light is BIIB71F10-132 by paragraph 503
T4 construct: Expressed and purified in house
T4 sequence (looked up): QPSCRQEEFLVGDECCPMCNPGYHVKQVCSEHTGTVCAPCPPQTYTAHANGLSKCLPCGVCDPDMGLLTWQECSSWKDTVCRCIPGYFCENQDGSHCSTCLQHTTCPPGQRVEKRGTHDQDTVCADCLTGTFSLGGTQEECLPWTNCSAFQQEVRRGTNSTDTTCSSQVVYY
Protocol: as §1, §2

human HER2-Fc = target: T5, human HER2-Fc (human, UniProt P04626 23-652); test: ELISA on coated huHER2-Fc, HRP anti-human kappa; the number is C of the printed 4-P fit (A -0.074, B 0.86, D 1.013, R^2 0.999); x axis: Fab equivalent concentration
T5 construct: Bought from R&D Systems: homodimeric fusion of the HER2 extracellular domain and human IgG1 Fc; also called human ErbB2-Fc; rhErbB2-Fc; not shown: Fc fragment of human IgG1
Protocol: as §1, with “Wells” for “Human and murine ErbB2-Fc were obtained from R&D Systems. Wells”, “coated” for “coated with 2 ug/ml or 0.2 ug/ml of human or murine HER2-Fc”, “goat antibodies against human kappa chain” for “either of these six proteins”, “5” for “0.2 or 2”
Human and murine HER2-Fc (homodimeric fusion proteins consisting of the extracellular domain of HER2 and the Fc fragment of human IgG1) were obtained from R&D Systems. […]

human LTβR-Ig [4] = target: T3, human LTβR-Ig; test: ELISA, huLTBR-Ig coated at 0.2 ug/ml, HRP goat anti-human kappa; the number is C of the printed 4-P fit (A 0.057, B 0.9, D 1.548, R^2 0.998); Fab-Light is BIIB71F10-132 by paragraph 502
Protocol: as §1
(§3) Human and murine LTBR-Ig were expressed and purified in house.

[5] = target: Soluble human LTBR (shuLTBR) (human, UniProt P36941 31-227, limits assumed); test: SEC / light scattering
Protocol: Soluble human LTBR (shuLTBR) was prepared by limited proteolytic digestion of human LTBR-Ig and purified by chromatography on protein A Sepharose and Fractogel TMAE. […] Controls with each protein were also included. The samples were analyzed by SEC using a […] column (Phenomenex) in PBS with a Waters Alliance HPLC instrument.

murine HVEM-Ig [6] = target: T4, murine HVEM-Ig; test: ELISA, muHVEM-Ig coated at 2 ug/ml, HRP goat anti-human kappa; the number is C of the printed 4-P fit (A 0.036, B 0.816, D 1.534, R^2 0.997); Fab-Light is BIIB71F10-132 by paragraph 503
Protocol: as §1, §2

human LTβR-Ig [7] = target: T3, human LTβR-Ig; test: ELISA on coated LTbR-Ig
Protocol: as §1, §3

T3 sequence (P36941 31-227): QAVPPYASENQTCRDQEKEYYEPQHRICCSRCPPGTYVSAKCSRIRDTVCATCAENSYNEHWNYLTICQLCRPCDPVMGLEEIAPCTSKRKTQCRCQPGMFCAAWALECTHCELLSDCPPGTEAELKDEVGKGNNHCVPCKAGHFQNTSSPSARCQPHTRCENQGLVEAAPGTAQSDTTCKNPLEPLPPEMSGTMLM
Chain of Soluble human LTBR (shuLTBR) (P36941 31-227 limits assumed): as the sequence (P36941 31-227) above

B1: 71F10 Fab-hLIGHT fusion with the (G4S)4 linker (BIIB71F10-132) (other)
heavy: EVQLLESGGGLVQPGGSLRLSCAASGFTFSSYGMVWVRQAPGKGLEWVSSISSSGGLTWYADSVKGRFTISRDNSKNTLYLQMNSLRAEDTAVYYCASPPGIAVARDYWGQGTLVTVSSASTKGPSVFPLAPSSKSTSGGTAALGCLVKDYFPEPVTVSWNSGALTSGVHTFPAVLQSSGLYSLSSVVTVPSSSLGTQTYICNVNHKPSNTKVDKKVEPKSCDKGGGGSGGGGSGGGGSGGGGSNPAAHLTGANSSLTGSGGPLLWETQLGLAFLRGLSYHDGALVVTKAGYYYIYSKVQLGGVGCPLGLASTITHGLYKRTPRYPEELELLVSQQSPCGRATSSSRVWWDSSFLGGVVHLEAGEEVVVRVLDERLVRLRDGTRSYFGAFMV
light: DIQMTQSPSSLSASVGDRVTITCRASQGISNYLAWYQQKPGKVPKLLIYAASTLQSGVPSRFSGSGSGTDFTLTISSLQPEDVATYYCQKYNSALLTFGGGTKVEIKRTVAAPSVFIFPPSDEQLKSGTASVVCLLNNFYPREAKVQWKVDNALQSGNSQESVTEQDSKDSTYSLSSTLTLSKADYEKHKVYACEVTHQGLSSPVTKSFNRGEC
notes: Trimer of Fab-LIGHT units; also called 71F10 Fab-(G4S)4-LIGHT
EC50 (human HVEM-Ig): 0.01 nM | EC50 [1]: 0.5 nM | EC50 (human LTβR-Ig [2]): 0.2 nM | EC50 (murine HVEM-Ig [3]): 0.0263 µg/mL | EC50 (human HER2-Fc): 7 ng/mL | EC50 (human LTβR-Ig [4]): 1.91 ng/mL | stoichiometry (shuLTBR for 1 Fab-Light trimer) [5]: 2 shuLTBR per trimer and 3 shuLTBR per trimer | EC50 (murine HVEM-Ig [6]): 2.5 ng/mL | EC50 (human LTβR-Ig [7]): 0.01 nM
